± gives the uncertainty stated by the source.
Experiment: amyloid nucleation score (Sup35N fusion, yeast selection) (log enrichment); library NNK2; higher = more nucleation; inactive = no reads after selection
Procedure, shortened: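 On medium lacking adenine and uracil, psi-negative yeast expressing peptides of 20 random codons fused to Sup35N were grown 7 days at 30°C after a 24-hour induction with 100 μM copper sulfate. Illumina sequencing of input and output plasmid inserts gave the reads, and sequences under 100 input reads were excluded. The nucleation score is the DiMSum log enrichment of output over input reads, centred on the mode score of non-aggregating sequences.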

Compared with DSIARYCVTYLWCNLHLLVK, NFCLARRYTYIKSPFCVSGK is lower in amyloid nucleation score: 4.01 ± 0.13 for the first, 0 ± 0.56 for the second.

AVDFKQDNHKYVNSLTDMGA and DFAFAFVVGTVLAISICVKH are within error of each other in amyloid nucleation score: 0.034 ± 1.1 for the first, -0.459 ± 0.56 for the second.

Going from VLWIGFYLNLYLPYLCNHVD to TTTESMRIWPTNRFKRCTLQ, the amyloid nucleation score falls from 3.37 ± 0.076 to 0.582 ± 0.2.

TWSHTPNALWMDALRSTLQA and ASGSKDACGCATSCV are within error of each other in amyloid nucleation score: 1.05 ± 0.38 for the first, 0.86 ± 0.13 for the second.

YIRCYRNV and TYPHVLTP are within error of each other in amyloid nucleation score: -0.536 ± 0.33 for the first, -0.022 ± 0.37 for the second.

First: FGAFVYWVFSIAYTLSRGSR
Second: RNGLRTLEQRRSKSVWEMSW
The amyloid nucleation score of the first is lower: -1.03 ± 0.6 for the first, 0.969 ± 0.16 for the second.

Compared with NWLQFF, SRSSTCGSRGLTGNRGGGIG is lower in amyloid nucleation score: 0.966 ± 0.13 for the first, 0.299 ± 0.45 for the second.

Compared with RVDVLIE, QYYRN is lower in amyloid nucleation score: 9.82 ± 0.048 for the first, 1.51 ± 0.58 for the second.

Compared with CLGGNHYHPSSTVTEQRYLT, GVFASSLLVFQLFFISPSNG is higher in amyloid nucleation score: 0.859 ± 0.48 for the first, 6.181 ± 0.028 for the second.

Compared with SVSQPYSKSVGLRGRGKQGQ, KLQSCCIF is higher in amyloid nucleation score: 0.737 ± 0.46 for the first, 6.23 ± 0.084 for the second.

Compared with VIAVCLVLVSSDVKIGTRMG, IYCLATVMDMICVYGWICAW is lower in amyloid nucleation score: 1.84 ± 0.16 for the first, 0.049 ± 0.34 for the second.

First: VVWVSITKWATRAVISHGDT
Second: TRSTNVQLDPYFYLW
The amyloid nucleation score of the first is higher: 0.617 ± 0.32 for the first, -1.16 ± 0.39 for the second.

Going from DDGMCRRYCLGRKYTMGIEL to SHIPIWRKLSVQFSVKIVLE, the amyloid nucleation score falls from 1.78 ± 0.14 to -0.637 ± 1.1.

NIVQEHTTCTEVRGVSALAR and IFRAYIAGKTIYRCDQYVGM are within error of each other in amyloid nucleation score: 0.436 ± 0.66 for the first, -0.539 ± 0.55 for the second.

Compared with VGRQSCFVYMWCWTYHMWGL, ASFMSISVYND is lower in amyloid nucleation score: 1.37 ± 0.32 for the first, -0.32 ± 0.63 for the second.

First: GSIYTCCGAGRKQNVGPKYL
Second: RFNVLRIGPLSHLQGWEHPT
The amyloid nucleation score of the first is higher: 2.25 ± 0.1 for the first, -0.632 ± 0.63 for the second.

First: FTRYLTFNFRLETYYRGSHG
Second: PSRLRYITICRVPGAMSDVN
The amyloid nucleation score of the first is higher: 1.44 ± 0.18 for the first, 0.268 ± 0.27 for the second.

Going from YHNWSA to FVKWIMY, the amyloid nucleation score rises from 0.025 ± 0.23 to 4.09 ± 0.098.

First: LPFFKIMVRSSYCCNYQG
Second: TATGTIECMVYPLTFSSLSP
The amyloid nucleation score of the first is higher: 2.29 ± 0.065 for the first, -0.1 ± 1 for the second.

SRYSSV and RNALLCADLTPLAPLNLFCD are within error of each other in amyloid nucleation score: 0.172 ± 0.65 for the first, -0.636 ± 0.76 for the second.

Compared with HAMWCFGFIVLGGGNDIRIW, FLGYIKSLCMYYRRSGMINA is lower in amyloid nucleation score: 8.219 ± 0.045 for the first, -2.17 ± 0.62 for the second.

Going from KSPFVICGKRDVRK to IVRNPKLMLSNGH, the amyloid nucleation score rises from -1.28 ± 1.1 to 0.907 ± 0.58.

SCQFWSTFCTSC and YKEVWY are within error of each other in amyloid nucleation score: 0.378 ± 0.74 for the first, -0.284 ± 0.45 for the second.

LRESFKRWMLVVAATLYAFK and VKYFSYDIVGVGREYYFKTT are within error of each other in amyloid nucleation score: 0.376 ± 0.48 for the first, -0.555 ± 0.76 for the second.

First: FQSDLMINIK
Second: MWSLRYTVGLEDCG
The amyloid nucleation score of the first is lower: -0.496 ± 0.56 for the first, 0.897 ± 0.34 for the second.

First: LMMSVWF
Second: VHTAFRETLYRRDKMLCGMR
The amyloid nucleation score of the first is higher: 5.48 ± 0.063 for the first, -0.709 ± 0.63 for the second.

First: NNFRWNVMVCYAFQGYSGVK
Second: NNKTKPVVFILSMYNYERFS
The amyloid nucleation score of the first is higher: 2.64 ± 0.068 for the first, 2.12 ± 0.25 for the second.

First: MISESF
Second: EFSRDRSENIAGTPSLRLNQ
The amyloid nucleation score of the first is lower: 0.403 ± 0.56 for the first, 4.56 ± 0.049 for the second.

TLGLHGED and VVSSGLHHRLLLCRIEGA are within error of each other in amyloid nucleation score: 0.23 ± 0.31 for the first, 0.526 ± 0.26 for the second.

Going from VRMWRGE to CIFPPYVWYGIVMVYASMYG, the amyloid nucleation score rises from 0.083 ± 0.49 to 6.602 ± 0.039.

SPHDVGNSIVIMGFRMWLN and LGSRGSRSIAESFAGKIRI are within error of each other in amyloid nucleation score: 0.082 ± 0.44 for the first, -0.226 ± 1.1 for the second.

RLWYSSSVLLV and NLHVGREPQGSEYVDPFSVV are within error of each other in amyloid nucleation score: 0.709 ± 0.36 for the first, 0.731 ± 0.25 for the second.

RASMVDF and SVRFAC are within error of each other in amyloid nucleation score: 0.108 ± 0.65 for the first, -0.114 ± 1.1 for the second.

For GLWVSHEVCIGCVF, the amyloid nucleation score was “inactive”.
In the case of HPGMDF, the amyloid nucleation score is reported as “inactive”.
For HVISTSW, the amyloid nucleation score was “inactive”.
In the case of SWALKRAPVGNR, the amyloid nucleation score is reported as “inactive”.
With RWIATGSGRPETHVILESSG the amyloid nucleation score was “inactive”.
With STDIWVWFYRNFLMTANRN the amyloid nucleation score was “inactive”.

From the supplement of paper PMC12042874
